# Source: IntAct's records for PubMed 21063388
# B1: Trinucleotide repeat-containing gene 6A protein (Homo sapiens), Q8NDV7 (parent)
# chain: MRELEAKATKDVERNLSRDLVQEEEQLMEEKKKKKDDKKKKEAAQKKATEQKIKVPEQIKPSVSQPQPANSNNGTSTATSTNNNAKRATANNQQPQQQQQQQQPQQQQPQQQPQPQPQQQQPQQQPQALPRYPREVPPRFRHQEHKQLLKRGQHFPVIAANLGSAVKVLNSQSESSALTNQQPQNNGEVQNSKNQSDINHSTSGSHYENSQRGPVSSTSDSSTNCKNAVVSDLSEKEAWPSAPGSDPELASECMDADSASSSESERNITIMASGNTGGEKDGLRNSTGLGSQNKFVVGSSSNNVGHGSSTGPWGFSHGAIISTCQVSVDAPESKSESSNNRMNAWGTVSSSSNGGLNPSTLNSASNHGAWPVLENNGLALKGPVGSGSSGINIQCSTIGQMPNNQSINSKVSGGSTHGTWGSLQETCESEVSGTQKVSFSGQPQNITTEMTGPNNTTNFMTSSLPNSGSVQNNELPSSNTGAWRVSTMNHPQMQAPSGMNGTSLSHLSNGESKSGGSYGTTWGAYGSNYSGDKCSGPNGQANGDTVNATLMQPGVNGPMGTNFQVNTNKGGGVWESGAANSQSTSWGSGNGANSGGSRRGWGTPAQNTGTNLPSVEWNKLPSNQHSNDSANGNGKTFTNGWKSTEEEDQGSATSQTNEQSSVWAKTGGTVESDGSTESTGRLEEKGTGESQSRDRRKIDQHTLLQSIVNRTDLDPRVLSNSGWGQTPIKQNTAWDTETSPRGERKTDNGTEAWGSSATQTFNSGACIDKTSPNGNDTSSVSGWGDPKPALRWGDSKGSNCQGGWEDDSAATGMVKSNQWGNCKEEKAAWNDSQKNKQGWGDGQKSSQGWSVSASDNWGETSRNNHWGEANKKSSSGGSDSDRSVSGWNELGKTSSFTWGNNINPNNSSGWDESSKPTPSQGWGDPPKSNQSLGWGDSSKPVSSPDWNKQQDIVGSWGIPPATGKPPGTGWLGGPIPAPAKEEEPTGWEEPSPESIRRKMEIDDGTSAWGDPSKYNYKNVNMWNKNVPNGNSRSDQQAQVHQLLTPASAISNKEASSGSGWGEPWGEPSTPATTVDNGTSAWGKPIDSGPSWGEPIAAASSTSTWGSSSVGPQALSKSGPKSMQDGWCGDDMPLPGNRPTGWEEEEDVEIGMWNSNSSQELNSSLNWPPYTKKMSSKGLSGKKRRRERGMMKGGNKQEEAWINPFVKQFSNISFSRDSPEENVQSNKMDLSGGMLQDKRMEIDKHSLNIGDYNRTVGKGPGSRPQISKESSMERNPYFDKDGIVADESQNMQFMSSQSMKLPPSNSALPNQALGSIAGLGMQNLNSVRQNGNPSMFGVGNTAAQPRGMQQPPAQPLSSSQPNLRAQVPPPLLSPQVPVSLLKYAPNNGGLNPLFGPQQVAMLNQLSQLNQLSQISQLQRLLAQQQRAQSQRSVPSGNRPQQDQQGRPLSVQQQMMQQSRQLDPNLLVKQQTPPSQQQPLHQPAMKSFLDNVMPHTTPELQKGPSPINAFSNFPIGLNSNLNVNMDMNSIKEPQSRLRKWTTVDSISVNTSLDQNSSKHGAISSGFRLEESPFVPYDFMNSSTSPASPPGSIGDGWPRAKSPNGSSSVNWPPEFRPGEPWKGYPNIDPETDPYVTPGSVINNLSINTVREVDHLRDRNSGSSSSLNTTLPSTSAWSSIRASNYNVPLSSTAQSTSARNSDSKLTWSPGSVTNTSLAHELWKVPLPPKNITAPSRPPPGLTGQKPPLSTWDNSPLRIGGGWGNSDARYTPGSSWGESSSGRITNWLVLKNLTPQIDGSTLRTLCMQHGPLITFHLNLPHGNALVRYSSKEEVVKAQKSLHMCVLGNTTILAEFASEEEISRFFAQSQSLTPSPGWQSLGSSQSRLGSLDCSHSFSSRTDLNHWNGAGLSGTNCGDLHGTSLWGTPHYSTSLWGPPSSSDPRGISSPSPINAFLSVDHLGGGGESM
# B2: Trinucleotide repeat-containing gene 6C protein (Homo sapiens), Q9HCJ0-1 (parent)
# chain: MATGSAQGNFTGHTKKTNGNNGTNGALVQSPSNQSALGAGGANSNGSAARVWGVATGSSSGLAHCSVSGGDGKMDTMIGDGRSQNCWGASNSNAGINLNLNPNANPAAWPVLGHEGTVATGNPSSICSPVSAIGQNMGNQNGNPTGTLGAWGNLLPQESTEPQTSTSQNVSFSAQPQNLNTDGPNNTNPMNSSPNPINAMQTNGLPNWGMAVGMGAIIPPHLQGLPGANGSSVSQVSGGSAEGISNSVWGLSPGNPATGNSNSGFSQGNGDTVNSALSAKQNGSSSAVQKEGSGGNAWDSGPPAGPGILAWGRGSGNNGVGNIHSGAWGHPSRSTSNGVNGEWGKPPNQHSNSDINGKGSTGWESPSVTSQNPTVQPGGEHMNSWAKAASSGTTASEGSSDGSGNHNEGSTGREGTGEGRRRDKGIIDQGHIQLPRNDLDPRVLSNTGWGQTPVKQNTAWEFEESPRSERKNDNGTEAWGCAATQASNSGGKNDGSIMNSTNTSSVSGWVNAPPAAVPANTGWGDSNNKAPSGPGVWGDSISSTAVSTAAAAKSGHAWSGAANQEDKSPTWGEPPKPKSQHWGDGQRSNPAWSAGGGDWADSSSVLGHLGDGKKNGSGWDADSNRSGSGWNDTTRSGNSGWGNSTNTKANPGTNWGETLKPGPQQNWASKPQDNNVSNWGGAASVKQTGTGWIGGPVPVKQKDSSEATGWEEPSPPSIRRKMEIDDGTSAWGDPSNYNNKTVNMWDRNNPVIQSSTTTNTTTTTTTTTSNTTHRVETPPPHQAGTQLNRSPLLGPGRKVSSGWGEMPNVHSKTENSWGEPSSPSTLVDNGTAAWGKPPSSGSGWGDHPAEPPVAFGRAGAPVAASALCKPASKSMQEGWGSGGDEMNLSTSQWEDEEGDVWNNAASQESTSSCSSWGNAPKKGLQKGMKTSGKQDEAWIMSRLIKQLTDMGFPREPAEEALKSNNMNLDQAMSALLEKKVDVDKRGLGVTDHNGMAAKPLGCRPPISKESSVDRPTFLDKDGGLVEEPTPSPFLPSPSLKLPLSHSALPSQALGGIASGLGMQNLNSSRQIPSGNLGMFGNSGAAQARTMQQPPQPPVQPLNSSQPSLRAQVPQFLSPQVQAQLLQFAAKNIGLNPALLTSPINPQHMTMLNQLYQLQLAYQRLQIQQQMLQAQRNVSGSMRQQEQQVARTITNLQQQIQQHQRQLAQALLVKQPPPPPPPPHLSLHPSAGKSAMDSFPSHPQTPGLPDLQTKEQQSSPNTFAPYPLAGLNPNMNVNSMDMTGGLSVKDPSQSQSRLPQWTHPNSMDNLPSAASPLEQNPSKHGAIPGGLSIGPPGKSSIDDSYGRYDLIQNSESPASPPVAVPHSWSRAKSDSDKISNGSSINWPPEFHPGVPWKGLQNIDPENDPDVTPGSVPTGPTINTTIQDVNRYLLKSGGKLSDIKSTWSSGPTSHTQASLSHELWKVPRNSTAPTRPPPGLTNPKPSSTWGASPLGWTSSYSSGSAWSTDTSGRTSSWLVLRNLTPQIDGSTLRTLCLQHGPLITFHLNLTQGNAVVRYSSKEEAAKAQKSLHMCVLGNTTILAEFAGEEEVNRFLAQGQALPPTSSWQSSSASSQPRLSAAGSSHGLVRSDAGHWNAPCLGGKGSSELLWGGVPQYSSSLWGPPSADDSRVIGSPTPLTTLLPGDLLSGESL
# B3: Protein Gawky (Drosophila melanogaster (Fruit fly)), Q8SY33 (parent)
# chain: MREALFSQDGWGCQHVNQDTNWEVPSSPEPANKDAPGPPMWKPSINNGTDLWESNLRNGGQPAAQQVPKPSWGHTPSSNLGGTWGEDDDGADSSSVWTGGAVSNAGSGAAVGVNQAGVNVGPGGVVSSGGPQWGQGVVGVGLGSTGGNGSSNITGSSGVATGSSGNSSNAGNGWGDPREIRPLGVGGSMDIRNVEHRGGNGSGATSSDPRDIRMIDPRDPIRGDPRGISGRLNGTSEMWGHHPQMSHNQLQGINKMVGQSVATASTSVGTSGSGIGPGGPGPSTVSGNIPTQWGPAQPVSVGVSGPKDMSKQISGWEEPSPPPQRRSIPNYDDGTSLWGQQTRVPAASGHWKDMTDSIGRSSHLMRGQSQTGGIGIAGVGNSNVPVGANPSNPISSVVGPQARIPSVGGVQHKPDGGAMWVHSGNVGGRNNVAAVTTWGDDTHSVNVGAPSSGSVSSNNWVDDKSNSTLAQNSWSDPAPVGVSWGNKQSKPPSNSASSGWSTAAGVVDGVDLGSEWNTHGGIIGKSQQQQKLAGLNVGMVNVINAEIIKQSKQYRILVENGFKKEDVERALVIANMNIEEAADMLRANSSLSMDGWRRHDESLGSYADHNSSTSSGGFAGRYPVNSGQPSMSFPHNNLMNNMGGTAVTGGNNNTNMTALQVQKYLNQGQHGVAVGPQAVGNSSAVSVGFGQNTSNAAVAGAASVNIAANTNNQPSGQQIRMLGQQIQLAIHSGFISSQILTQPLTQTTLNLLNQLLSNIKHLQAAQQSLTRGGNVNPMAVNVAISKYKQQIQNLQNQINAQQAVYVKQQNMQPTSQQQQPQQQQLPSVHLSNSGNDYLRGHDAINNLQSNFSELNINKPSGYQGASNQQSRLNQWKLPVLDKEINSDSTEFSRAPGATKQNLTANTSNINSLGLQNDSTWSTGRSIGDGWPDPSSDNENKDWSVAQPTSAATAYTDLVQEFEPGKPWKGSQIKSIEDDPSITPGSVARSPLSINSTPKDADIFANTGKNSPTDLPPLSLSSSTWSFNPNQNYPSHSWSDNSQQCTATSELWTSPLNKSSSRGPPPGLTANSNKSANSNASTPTTITGGANGWLQPRSGGVQTTNTNWTGGNTTWGSSWLLLKNLTAQIDGPTLRTLCMQHGPLVSFHPYLNQGIALCKYTTREEANKAQMALNNCVLANTTIFAESPSENEVQSIMQHLPQTPSSTSSSGTSGGNVGGVGTSANNANSGSAACLSGNNSGNGNGSASGAGSGNNGNSSCNNSAAGGGSSSNNTITTVANSNLVGSSGSVSNSSGVTANSSTVSVVSCTASGNSINGAGTANSSGSKSSANNLASGQSSASNLTNSTNSTWRQTSQNQALQSQSRPSGREADFDYISLVYSIVDD
# Variants of: B1
# Conditions: with pabp_drome pAbp
row,effect of a mutation on the interaction,Variant
1,disrupting interaction,F1612A

# Variants of: B1
# Conditions: with pabp1_human PABPC1, P11940
# Target sequence in this assay (P11940 whole entry): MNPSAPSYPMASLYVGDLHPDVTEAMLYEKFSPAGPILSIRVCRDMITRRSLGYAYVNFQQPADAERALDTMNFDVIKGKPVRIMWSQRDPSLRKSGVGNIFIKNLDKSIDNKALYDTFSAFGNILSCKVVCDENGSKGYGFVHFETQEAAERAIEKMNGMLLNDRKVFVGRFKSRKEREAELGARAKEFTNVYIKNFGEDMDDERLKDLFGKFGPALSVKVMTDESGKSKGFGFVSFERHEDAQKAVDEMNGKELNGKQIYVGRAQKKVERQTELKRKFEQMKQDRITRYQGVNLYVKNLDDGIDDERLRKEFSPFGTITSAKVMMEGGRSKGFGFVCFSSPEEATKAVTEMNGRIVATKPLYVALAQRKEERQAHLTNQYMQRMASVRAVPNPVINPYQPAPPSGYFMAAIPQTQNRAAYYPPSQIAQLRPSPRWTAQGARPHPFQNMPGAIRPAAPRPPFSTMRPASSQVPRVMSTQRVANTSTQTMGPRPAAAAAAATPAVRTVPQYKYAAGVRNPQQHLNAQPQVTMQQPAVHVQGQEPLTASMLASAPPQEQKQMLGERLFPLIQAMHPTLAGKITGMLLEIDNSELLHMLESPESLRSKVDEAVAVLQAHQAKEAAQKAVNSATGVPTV
row,effect of a mutation on the interaction,Variant
1,disrupting interaction,F1612A

# Variants of: B2
# Conditions: with pabp_drome pAbp
# Target sequence in this assay (P21187 whole entry): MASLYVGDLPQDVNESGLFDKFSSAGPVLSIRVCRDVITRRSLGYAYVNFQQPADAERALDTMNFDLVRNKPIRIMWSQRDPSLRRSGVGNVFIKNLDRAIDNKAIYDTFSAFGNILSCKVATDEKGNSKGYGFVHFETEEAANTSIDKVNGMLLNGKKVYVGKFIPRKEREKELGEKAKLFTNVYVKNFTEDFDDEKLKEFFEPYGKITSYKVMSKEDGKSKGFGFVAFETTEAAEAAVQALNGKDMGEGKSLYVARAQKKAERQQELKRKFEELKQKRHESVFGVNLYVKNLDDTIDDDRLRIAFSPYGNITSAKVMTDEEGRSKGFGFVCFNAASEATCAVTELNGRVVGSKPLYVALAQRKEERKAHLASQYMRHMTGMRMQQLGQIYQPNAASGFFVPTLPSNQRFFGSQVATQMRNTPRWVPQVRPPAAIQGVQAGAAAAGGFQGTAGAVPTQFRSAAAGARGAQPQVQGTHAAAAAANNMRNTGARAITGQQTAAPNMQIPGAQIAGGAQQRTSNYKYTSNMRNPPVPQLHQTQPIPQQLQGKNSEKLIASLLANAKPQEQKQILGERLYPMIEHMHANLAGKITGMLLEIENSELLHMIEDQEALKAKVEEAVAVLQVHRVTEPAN
row,effect of a mutation on the interaction,Variant
1,disrupting interaction,F1389A

# Variants of: B2
# Conditions: with pabp1_human PABPC1, P11940
# Target sequence in this assay (P11940 whole entry): as the sequence (P11940 whole entry) above
row,effect of a mutation on the interaction,Variant
1,disrupting interaction,F1389A

# Variants of: B3
# Conditions: with pabp_drome pAbp
# Target sequence in this assay (P21187 whole entry): as the sequence (P21187 whole entry) above
row,effect of a mutation on the interaction,Variant
1,increasing interaction,E962Q

# Variants of: B3
# Conditions: with pabp_drome pAbp
# Remark: another data set of the same source
# Target sequence in this assay (P21187 whole entry): as above
row,effect of a mutation on the interaction,Variant
1,increasing interaction,Q959P
2,increasing interaction,V958P

# Variants of: B3
# Conditions: with pabp_drome pAbp
# Remark: another data set of the same source
# Target sequence in this assay (P21187 whole entry): as above
row,effect of a mutation on the interaction,Variant
1,disrupting interaction,F961A
